Data as given in paper PMC9431274, “Stenotrophomonas maltophilia from Nepal Producing Two Novel Antibiotic Inactivating Enzymes, a Class A β-Lactamase KBL-1 and an Aminoglycoside 6′-N-Acetyltransferase AAC(6′)-Iap” (Microbiology Spectrum, 2022).

Assays:
KBL-1 = target: T1, KBL-1 (Stenotrophomonas maltophilia, UniProt A0A7I8E9L1); assay: penicillin G hydrolysis, UV spectrophotometry; assay type: biochemical
T1 construct: gene blaKBL-1; full length 286 residues; expressed without signal peptide in E. coli BL21-CodonPlus (pET28a); His-tag removed by TEV

[1] = tested on: CO/N=C(\C(=O)N[C@@H]1C(=O)N2C(C(=O)[O-])=C(C[N+]3(C)CCCC3)CS[C@H]12)c1csc(N)n1; assay: initial rate of hydrolysis, UV spectrophotometry, Lineweaver-Burk; assay type: biochemical, Stenotrophomonas maltophilia; details: 37°C, 50 mM Tris-HCl pH 7.4, 0.3 M NaCl
Source text: (§1) initial rate of hydrolysis, UV spectrophotometry, Lineweaver-Burk on KBL-1

[2] = tested on: C[C@@H](O)[C@H]1C(=O)N2C(C(=O)O)=C(SCCN=CN)C[C@H]12; assay: as above; assay type: biochemical, Stenotrophomonas maltophilia; details: 37°C, 50 mM Tris-HCl pH 7.4, 0.3 M NaCl
Source text: as §1

[3] = tested on: CC1(C)S[C@@H]2[C@H](NC(=O)[C@H](N)c3ccc(O)cc3)C(=O)N2[C@H]1C(=O)O; assay: as above; assay type: biochemical, Stenotrophomonas maltophilia; details: 37°C, 50 mM Tris-HCl pH 7.4, 0.3 M NaCl
Source text: as §1

[4] = tested on: CCN1CCN(C(=O)N[C@@H](C(=O)N[C@@H]2C(=O)N3[C@@H]2SC(C)(C)[C@@H]3C(=O)O)c2ccccc2)C(=O)C1=O; assay: as above; assay type: biochemical, Stenotrophomonas maltophilia; details: 37°C, 50 mM Tris-HCl pH 7.4, 0.3 M NaCl
Source text: as §1

[5] = tested on: CC1(C)S[C@@H]2[C@H](NC(=O)Cc3ccccc3)C(=O)N2[C@H]1C(=O)O; assay: as above; assay type: biochemical, Stenotrophomonas maltophilia; details: 37°C, 50 mM Tris-HCl pH 7.4, 0.3 M NaCl
Source text: as §1

[6] = tested on: C[C@@H](O)[C@H]1C(=O)N2C(C(=O)O)=C(S[C@@H]3CN[C@H](C(=O)N(C)C)C3)[C@H](C)[C@H]12; assay: as above; assay type: biochemical, Stenotrophomonas maltophilia; details: 37°C, 50 mM Tris-HCl pH 7.4, 0.3 M NaCl
Source text: as §1

[7] = tested on: CO[C@@]1(NC(=O)C(C(=O)O)c2ccc(O)cc2)C(=O)N2C(C(=O)O)=C(CSc3nnnn3C)CO[C@@H]21; assay: as above; assay type: biochemical, Stenotrophomonas maltophilia; details: 37°C, 50 mM Tris-HCl pH 7.4, 0.3 M NaCl
Source text: as §1

[8] = tested on: CO/N=C(\C(=O)N[C@@H]1C(=O)N2C(C(=O)O)=C(COC(C)=O)CS[C@H]12)c1csc(N)n1; assay: as above; assay type: biochemical, Stenotrophomonas maltophilia; details: 37°C, 50 mM Tris-HCl pH 7.4, 0.3 M NaCl
Source text: as §1

[9] = tested on: CC1(C)S[C@@H]2[C@H](NC(=O)[C@H](N)c3ccccc3)C(=O)N2[C@H]1C(=O)O; assay: as above; assay type: biochemical, Stenotrophomonas maltophilia; details: 37°C, 50 mM Tris-HCl pH 7.4, 0.3 M NaCl
Source text: as §1

[10] = tested on: CC(C)(O/N=C(\C(=O)N[C@@H]1C(=O)N2C(C(=O)[O-])=C(C[n+]3ccccc3)CS[C@H]12)c1csc(N)n1)C(=O)O; assay: as above; assay type: biochemical, Stenotrophomonas maltophilia; details: 37°C, 50 mM Tris-HCl pH 7.4, 0.3 M NaCl
Source text: as §1

[11] = tested on: CC1=C(C(=O)O)N2C(=O)[C@@H](NC(=O)[C@H](N)C3=CCC=CC3)[C@H]2SC1; assay: as above; assay type: biochemical, Stenotrophomonas maltophilia; details: 37°C, 50 mM Tris-HCl pH 7.4, 0.3 M NaCl
Source text: as §1

[12] = tested on: CO[C@@]1(NC(=O)Cc2cccs2)C(=O)N2C(C(=O)O)=C(COC(N)=O)CS[C@@H]21; assay: as above; assay type: biochemical, Stenotrophomonas maltophilia; details: 37°C, 50 mM Tris-HCl pH 7.4, 0.3 M NaCl
Source text: as §1

T1 sequence (A0A7I8E9L1 entry or part of it): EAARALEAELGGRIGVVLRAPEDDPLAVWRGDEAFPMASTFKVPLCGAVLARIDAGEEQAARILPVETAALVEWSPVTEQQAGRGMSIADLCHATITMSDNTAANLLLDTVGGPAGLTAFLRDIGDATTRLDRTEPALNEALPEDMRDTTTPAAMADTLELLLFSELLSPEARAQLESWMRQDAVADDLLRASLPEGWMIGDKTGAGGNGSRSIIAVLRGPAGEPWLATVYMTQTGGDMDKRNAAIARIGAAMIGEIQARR

O=C(O)[C@H]1/C(=C/CO)O[C@@H]2CC(=O)N21 [clavulanic acid]
IC50 (KBL-1): 210 nM

CC1(C)[C@H](C(=O)O)N2C(=O)C[C@H]2S1(=O)=O [sulbactam]
IC50 (KBL-1): 1200 nM

KBL-1 (Stenotrophomonas maltophilia)
Km [1]: 79 ± 2 µM | kcat [1]: 0.751 ± 0.029 s⁻¹ | kcat/Km [1]: 10000 M⁻¹ s⁻¹ | Km [2]: 85 ± 7 µM | kcat [2]: 1.13 ± 0.143 s⁻¹ | kcat/Km [2]: 13000 M⁻¹ s⁻¹ | Km [3]: 23 ± 4 µM | kcat [3]: 10 ± 0.4 s⁻¹ | kcat/Km [3]: 455000 M⁻¹ s⁻¹ | Km [4]: 52 ± 7 µM | kcat [4]: 22 ± 1 s⁻¹ | kcat/Km [4]: 422000 M⁻¹ s⁻¹ | Km [5]: 21 ± 5 µM | kcat [5]: 24 ± 2 s⁻¹ | kcat/Km [5]: 1.17e+06 M⁻¹ s⁻¹ | Km [6]: 39 ± 6 µM | kcat [6]: 0.443 ± 0.056 s⁻¹ | kcat/Km [6]: 11000 M⁻¹ s⁻¹ | Km [7]: 49 ± 4 µM | kcat [7]: 0.392 ± 0.009 s⁻¹ | kcat/Km [7]: 8000 M⁻¹ s⁻¹ | Km [8]: 31 ± 5 µM | kcat [8]: 1.33 ± 0.053 s⁻¹ | kcat/Km [8]: 44000 M⁻¹ s⁻¹ | Km [9]: 37 ± 8 µM | kcat [9]: 19 ± 1 s⁻¹ | kcat/Km [9]: 532000 M⁻¹ s⁻¹ | Km [10]: 45 ± 12 µM | kcat [10]: 0.013 ± 0.003 s⁻¹ | kcat/Km [10]: 300 M⁻¹ s⁻¹ | Km [11]: 605 ± 45 µM | kcat [11]: 2.23 ± 0.13 s⁻¹ | kcat/Km [11]: 4000 M⁻¹ s⁻¹ | Km [12]: 57 ± 6 µM | kcat [12]: 0.032 ± 0.002 s⁻¹ | kcat/Km [12]: 1000 M⁻¹ s⁻¹
